For this assay, the target named is native circumsporozoite protein (CSP) on intact P. falciparum sporozoites (Plasmodium falciparum) (UniProt Q7K740). The assay can be described thus: indirect immunofluorescence on intact P. falciparum sporozoites.

Results on one substance are retold here after patent US20100272753A1.

Sequence of UniProt Q7K740 (Q7K740 19-374): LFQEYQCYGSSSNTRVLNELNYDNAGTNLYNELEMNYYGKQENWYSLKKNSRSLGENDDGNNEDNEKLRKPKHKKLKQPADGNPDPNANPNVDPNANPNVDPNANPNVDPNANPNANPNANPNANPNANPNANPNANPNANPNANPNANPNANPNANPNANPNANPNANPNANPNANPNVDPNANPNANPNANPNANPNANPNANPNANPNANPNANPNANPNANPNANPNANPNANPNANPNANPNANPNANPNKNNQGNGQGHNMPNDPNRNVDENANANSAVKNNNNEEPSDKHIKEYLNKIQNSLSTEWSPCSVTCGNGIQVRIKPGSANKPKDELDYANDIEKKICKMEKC

With “anti-P. falciparum NANP monoclonal antibody 2A10”, the dilution positive in immunofluorescence (reciprocal dilution) came out at 16000.
